{
  "source": "patent US10954506B2",
  "about": "(priority 2013, dated 2021)",
  "origin": "cited, not measured here",
  "details": "in vivo, iv",
  "data": [
    {"molecule": "BChE: Butyrylcholinesterase, natural stoichiometric bioscavenger found as soluble protein in human plasma (protein, UniProt P06276 29-602, looked up) Cholinesterase: EDDIIIATKNGKVRGMNLTVFGGTVTAFLGIPYAQPPLGRLRFKKPQSLTKWSDIWNATKYANSCCQNIDQSFPGFHGSEMWNPNTDLSEDCLYLNVWIPAPKPKNATVLIWIYGGGFQTGTSSLHVYDGKFLARVERVIVVSMNYRVGALGFLALPGNPEAPGNMGLFDQQLALQWVQKNIAAFGGNPKSVTLFGESAGAASVSLHLLSPGSHSLFTRAILQSGSFNAPWAVTSLYEARNRTLNLAKLTGCSRENETEIIKCLRNKDPQEILLNEAFVVPYGTPLSVNFGPTVDGDFLTDMPDILLELGQFKKTQILVGVNKDEGTAFLVYGAPGFSKDNNSIITRKEFQEGLKIFFPGVSEFGKESILFHYTDWVDDQRPENYREALGDVVGDYNFICPALEFTKKFSEWGNNAFFYYFEHRSSKLPWPEWMGVMHGYEIEFVFGLPLERRDNYTKAEEILSRSIVKRWANFAKYGNPNETQNNSTSWPVFKSTEQKYLTLNTESTRIMTKLRAQQCRFWTSFFPKVLEMTGNIDEAEWEWKAGFHRWNNYMMDWKNQFNDYTSKKESCVGL", "values": [
      {"measurement": "effective dose", "result": "about 3 mg/kg"}
    ]}
  ]
}
